From paper PMC7904734, “ORP/Osh mediate cross-talk between ER-plasma membrane contact site components and plasma membrane SNAREs” (Cellular and Molecular Life Sciences: CMLS, 2020) come the findings set out here.

The target in test [1] is YFP(C)·Sec22p (S. cerevisiae) (UniProt P22214). The test is described as follows: split reporter (BiFC, NanoBiT); BiFC in living Δosh1-3 yeast cells (Y36), compared with wt (Y2).
Test [2] concerns the target T1, Venus(C)·VAPA (lentiviral) (human), Q9P0L0.
T1 chain: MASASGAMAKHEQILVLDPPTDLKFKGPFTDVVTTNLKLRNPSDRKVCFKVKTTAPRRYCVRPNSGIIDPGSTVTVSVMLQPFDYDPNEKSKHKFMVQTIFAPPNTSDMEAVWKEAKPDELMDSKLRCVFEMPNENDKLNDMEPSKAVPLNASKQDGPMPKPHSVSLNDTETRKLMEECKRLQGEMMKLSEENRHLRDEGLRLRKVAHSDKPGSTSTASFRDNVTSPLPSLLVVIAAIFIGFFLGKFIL
Briefly: split reporter (BiFC, NanoBiT); BiFC of Venus(N)·VAPA and Venus(C)·VAPA in wt mouse hippocampal neurons, lentiviral; scrambled or ORP2 shRNA; infected DIV 3 and fixed DIV 7, or infected DIV 7 and fixed DIV 14. The conditions noted are these: remark: other sources report otherwise.

The target of the next test is T2, His·Osh3p (S. cerevisiae, UniProt P38713 1-996).
T2 construct: Osh3p, PCR amplified and cloned into vector 1509; also called His6-tagged Osh3p; source: bacterial production, purified (Ni-NTA agarose)
T2 sequence (looked up): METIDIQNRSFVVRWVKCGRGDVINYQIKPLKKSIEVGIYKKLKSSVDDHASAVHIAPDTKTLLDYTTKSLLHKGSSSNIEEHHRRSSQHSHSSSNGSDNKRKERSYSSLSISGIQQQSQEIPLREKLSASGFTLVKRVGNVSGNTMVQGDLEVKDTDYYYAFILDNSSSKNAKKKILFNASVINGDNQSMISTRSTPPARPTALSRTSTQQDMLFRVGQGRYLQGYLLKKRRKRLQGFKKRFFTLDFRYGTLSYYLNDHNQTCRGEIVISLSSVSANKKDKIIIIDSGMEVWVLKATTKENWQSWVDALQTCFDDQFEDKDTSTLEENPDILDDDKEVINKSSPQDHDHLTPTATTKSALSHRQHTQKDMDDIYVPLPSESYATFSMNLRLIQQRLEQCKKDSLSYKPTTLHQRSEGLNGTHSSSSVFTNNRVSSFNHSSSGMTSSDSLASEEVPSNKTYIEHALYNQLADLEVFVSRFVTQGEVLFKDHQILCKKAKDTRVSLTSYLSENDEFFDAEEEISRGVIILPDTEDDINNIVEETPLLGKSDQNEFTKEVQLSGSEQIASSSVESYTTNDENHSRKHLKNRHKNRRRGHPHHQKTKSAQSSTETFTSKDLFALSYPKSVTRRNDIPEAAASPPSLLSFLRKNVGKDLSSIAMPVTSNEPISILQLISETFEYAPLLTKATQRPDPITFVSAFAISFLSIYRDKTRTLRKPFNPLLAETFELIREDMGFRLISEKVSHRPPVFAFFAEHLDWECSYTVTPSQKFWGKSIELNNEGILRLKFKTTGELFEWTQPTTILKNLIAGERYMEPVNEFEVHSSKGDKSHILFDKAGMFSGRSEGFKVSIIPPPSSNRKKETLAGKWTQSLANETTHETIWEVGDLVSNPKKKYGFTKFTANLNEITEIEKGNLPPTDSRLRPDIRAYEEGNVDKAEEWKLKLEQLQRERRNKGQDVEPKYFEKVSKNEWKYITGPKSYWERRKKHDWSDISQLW
Briefly: pull-down; 2 μM GST·Sec9p(421–651) or GST on Glutathione-Agarose, equal molar His·Osh3p, 100 µl PBS + 0.1% Triton X-100, 1 h, room temperature; SDS-PAGE, Coomassie. Particulars: both partners purified.

Sequence of YFP(C)·Sec22p (S. cerevisiae) (P22214 whole entry): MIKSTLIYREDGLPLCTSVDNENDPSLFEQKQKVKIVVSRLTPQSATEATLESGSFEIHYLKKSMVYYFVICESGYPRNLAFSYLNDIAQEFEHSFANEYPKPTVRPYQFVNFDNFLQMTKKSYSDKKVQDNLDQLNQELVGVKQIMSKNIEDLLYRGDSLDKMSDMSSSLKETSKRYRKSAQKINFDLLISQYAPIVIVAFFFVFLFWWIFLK

For the molecule “YFP(N)·Sso1p (from UniProt P32867 1-290) (natural protein)”, the reduction of the BiFC signal in the Δosh1-3 strain against wt in test [1] was 19%.

B1: Venus(N)·VAPA (lentiviral), Q9P0L0 1-249 (natural protein)
chain: T1 chain
With B1, in test [2], the fold reduction of VAPA-VAPA BiFC patches in ORP2 KD cells (transduced DIV 3, fixed DIV 7) was 1.7 fold and the fold reduction of VAPA-VAPA BiFC patches in ORP2 KD cells (transduced DIV 7, fixed DIV 14) was determined as 2.3 fold.

B2: GST·Sec9p(421–651) (domain or fragment, S. cerevisiae, UniProt P40357 421-651, looked up)
chain: EEDEAVDEIKQEIKFTKQSSVASTRNTLKMAQDAERAGMNTLGMLGHQSEQLNNVEGNLDLMKVQNKVADEKVAELKKLNRSILAVHVSNPFNSKRRRREREEQLKNRKIEEKLMREQTSQQLSQSTQRIEGAMNANNNISEVRERYQRKNVLEKAKRYQFENDEEDDEMELEIDRNLDQIQQVSNRLKKMALTTGKELDSQQKRLNNIEESTDDLDINLHMNTNRLAGIR
notes: cut out of 1530 and cloned into 977
Take B2: the binding result with His·Osh3p was “binds”.
